Residue numbers refer to the chain shown, from its start. Names may count otherwise.
T1: hu N(A2-B2)A-avi-His (human, biotin on the avi tag where used biotinylated)
T1 construct: chimeric soluble antigen; also called hu N(A2-B2)A-avi-His B; human CEA (A2 domain)
T1 chain: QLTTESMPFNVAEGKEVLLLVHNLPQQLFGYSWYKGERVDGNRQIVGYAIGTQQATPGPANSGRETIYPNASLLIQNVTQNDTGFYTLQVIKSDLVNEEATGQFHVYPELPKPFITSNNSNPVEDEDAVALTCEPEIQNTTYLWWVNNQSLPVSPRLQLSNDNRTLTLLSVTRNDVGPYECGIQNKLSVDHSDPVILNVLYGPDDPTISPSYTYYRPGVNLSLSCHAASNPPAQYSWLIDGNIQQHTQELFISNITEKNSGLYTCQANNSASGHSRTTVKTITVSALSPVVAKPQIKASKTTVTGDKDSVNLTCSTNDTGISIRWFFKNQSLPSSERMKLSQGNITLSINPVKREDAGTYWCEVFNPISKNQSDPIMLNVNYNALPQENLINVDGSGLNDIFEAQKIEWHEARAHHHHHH

T2: NA(B2)A-avi-His (human, biotin on the avi tag)
T2 construct: chimeric soluble control antigen without the CEACAM5 A2 domain
T2 chain: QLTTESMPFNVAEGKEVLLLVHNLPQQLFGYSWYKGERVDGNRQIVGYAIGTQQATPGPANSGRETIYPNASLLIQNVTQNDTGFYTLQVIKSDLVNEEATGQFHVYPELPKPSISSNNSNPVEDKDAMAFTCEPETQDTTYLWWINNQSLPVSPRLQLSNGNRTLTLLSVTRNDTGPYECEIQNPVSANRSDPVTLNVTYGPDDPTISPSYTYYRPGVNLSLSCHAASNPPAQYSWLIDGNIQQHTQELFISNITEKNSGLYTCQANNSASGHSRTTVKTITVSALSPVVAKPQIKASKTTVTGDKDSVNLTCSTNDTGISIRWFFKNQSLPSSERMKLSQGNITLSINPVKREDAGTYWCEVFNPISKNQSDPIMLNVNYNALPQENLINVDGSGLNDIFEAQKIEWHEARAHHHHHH

T3: human CEA (CEACAM5), form in the assay not stated (human, UniProt P06731 35-685, limits assumed)
T3 sequence: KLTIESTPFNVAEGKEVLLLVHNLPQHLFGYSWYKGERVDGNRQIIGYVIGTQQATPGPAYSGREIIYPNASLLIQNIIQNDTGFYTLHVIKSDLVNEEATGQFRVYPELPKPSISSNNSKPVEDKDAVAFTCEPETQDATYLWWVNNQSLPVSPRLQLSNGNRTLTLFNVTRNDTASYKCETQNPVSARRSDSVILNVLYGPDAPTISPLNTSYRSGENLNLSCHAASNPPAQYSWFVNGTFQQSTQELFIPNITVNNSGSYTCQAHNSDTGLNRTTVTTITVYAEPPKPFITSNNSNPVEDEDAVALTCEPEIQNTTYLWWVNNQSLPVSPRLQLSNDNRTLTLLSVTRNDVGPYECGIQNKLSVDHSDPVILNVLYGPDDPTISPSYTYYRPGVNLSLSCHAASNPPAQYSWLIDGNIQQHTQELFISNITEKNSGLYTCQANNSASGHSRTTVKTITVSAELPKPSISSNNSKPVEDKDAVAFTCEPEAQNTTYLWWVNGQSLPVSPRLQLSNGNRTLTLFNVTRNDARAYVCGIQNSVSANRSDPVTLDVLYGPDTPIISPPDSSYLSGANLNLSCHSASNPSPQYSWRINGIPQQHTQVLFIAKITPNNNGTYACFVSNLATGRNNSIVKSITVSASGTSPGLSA

B1: A5H1EL1D Fab (phagemid-derived) (Fab, V domains shown)
VH: EVQLLESGGGLVQPGGSLRLSCAASGFTFTDYYMNWVRQAPGKGLEWLGFIGNKANAYTTEYSASVKGRFTISRDKSKNTLYLQMNSLRAEDTATYYCTRDRGLRFYFDYWGQGTTVTVSS
VL: EIVLTQSPATLSLSPGERATLSCRASSSVTYIHWYQQKPGQAPRSWIYATSNLASGIPARFSGSGSGTDFTLTISSLEPEDFAVYYCQHWSSKPPTFGQGTKLEIK
notes: Flag tag; also called parental humanized clone A5H1EL1D
B2: P006.038 Fab (Fab, V domains shown)
VH: B1 VH with L104I, Y107G
VL: B1 VL with K93V
notes: Fab from E. coli (supernatant or IMAC-purified); Flag tag; also called CEA (P006.038)
B3: P005.103 Fab (Fab, V domains shown)
VH: B1 VH with L104I
VL: B1 VL with K93I, P94S
notes: Fab from E. coli (supernatant or IMAC-purified); Flag tag; also called CEA (P005.103)
B4: P005.097 Fab (Fab, V domains shown)
VH: B1 VH with Y107S
VL: B1 VL with K93Q
notes: Fab from E. coli (supernatant or IMAC-purified); Flag tag; also called CEA (P005.097)
B5: P002.139 Fab (Fab, V domains shown)
VH: B1 VH with T28Y, Y33A, F50V, G52S
VL: B1 VL with R24H
notes: Fab from E. coli (supernatant or IMAC-purified); Flag tag; also called CEA (P002.139)
B6: P005.102 Fab (Fab, V domains shown)
VH: B1 VH with L104I, Y107Q
VL: B1 VL with P94S
notes: Fab from E. coli (supernatant or IMAC-purified); Flag tag; also called CEA (P005.102)
B7: P001.177 Fab (Fab, V domains shown)
VH: B1 VH with T28Y, G52S
VL: B1 VL
notes: Fab from E. coli (supernatant or IMAC-purified); Flag tag; also called CEA (P001.177)
B8: A5H1EL1D humanized anti-CEA antibody (format in the assay not stated) (antibody, V domains shown)
VH: B1 VH
VL: B1 VL
notes: also called huA5B7; 3-23A5-1E / A5-L1D
B9: A5B7 parental murine anti-CEA antibody (antibody, V domains shown)
VH: EVKLVESGGGLVQPGGSLRLSCATSGFTFTDYYMNWVRQPPGKALEWLGFIGNKANGYTTEYSASVKGRFTISRDKSQSILYLQMNTLRAEDSATYYCTRDRGLRFYFDYWGQGTTLTVSS
VL: QTVLSQSPAILSASPGEKVTMTCRASSSVTYIHWYQQKPGSSPKSWIYATSNLASGVPARFSGSGSGTSYSLTISRVEAEDAATYYCQHWSSKPPTFGGGTKLEIK
notes: also called parental chimeric antibody

Biological target: T1, hu N(A2-B2)A-avi-His
Assay: SPR (ProteOn XPR36), Fab in bacterial supernatant, biotinylated antigen on NLC chip
Description: (§1) For this experiment, about 2000, 1000, and 500 RU of biotinylated N(A2B2)A-avi-His were immobilized on 3 channels using a Streptavidin-coated NLC chip in vertical orientation. As a control for non-specific binding, 2000 RU of biotinylated NA(B2)A-avi-His protein was immobilized on channel 4. For the off-rate analysis of the identified ELISA-positive clones, injection direction was changed to horizontal orientation. Before injection, each Fab-containing bacterial supernatant was filtered and 3-fold diluted with PBS. The association time was 100 s at 100 μl/minute and dissociation times were either 600 or 1200 s. Bacterial supernatant without Fab fragment was used for referencing. Regeneration was performed with 10 mM glycine pH 1.5 for 35 s at 50 μl/min (vertical orientation).
(§2) Dissociation rate constants (koff) were calculated using a simple one-to-one Langmuir binding model in ProteOn Manager v3.1 software by simultaneously fitting the sensorgrams. […] Shortlisted clones were re-evaluated in an additional SPR experiments under the same conditions. […] Bacterial supernatant without Fab fragment was used for referencing.

Binder | koff
B1 | 0.00031 s⁻¹
B2 | 7.41e-05 s⁻¹
B3 | 5.37e-05 s⁻¹
B4 | 8.87e-05 s⁻¹
B5 | 6.47e-05 s⁻¹
B6 | 4.24e-05 s⁻¹
B7 | 9.81e-05 s⁻¹

Biological target: T2, NA(B2)A-avi-His
Assay: SPR (ProteOn), Fab in bacterial supernatant, 2000 RU antigen
Description: as §1, §2

Binder | binding result
B2 | no binding
B3 | no binding
B4 | no binding
B5 | no binding
B6 | no binding
B7 | no binding

Biological target: T1, hu N(A2-B2)A-avi-His
Assay: SPR (ProteOn XPR36), purified Fab, biotinylated antigen on NLC chip
Procedure: Affinity (KD) of purified Fab fragments was measured by surface plasmon resonance using a Proteon XPR36 machine using the same setup as described before.
About 2000, 1000, 500, and 250 RU of biotinylated N(A2B2)A-avi-His were immobilized on 4 channels of a Streptavidin-coated NLC chip in vertical orientation. As a control for non-specific binding, 2000 RU of biotinylated NA(B2)A-avi-His protein was immobilized on channel 5. For the determination of the affinity (KD) of the purified clones, injection direction was changed to horizontal orientation. Two-fold dilution series of purified Fab fragments (varying concentration ranges between 100 and 3 nM) were injected simultaneously at 100 μl/min along separate channels 1-5, with association times of 100 s, and dissociation times of 1200 s. Buffer (PBST) was injected along the sixth channel to provide an “in-line” blank for referencing. Regeneration was performed with 10 mM glycine pH 1.5 for 35 s at 50 μl/min (vertical orientation).
Association rate constants (kon) and dissociation rate constants (koff) were calculated using a simple one-to-one Langmuir binding model in ProteOn Manager v3.1 software by simultaneously fitting the association and dissociation sensorgrams. The equilibrium dissociation constant (KD) was calculated as the ratio koff/kon.

Binder | Kd | koff | kon
B1 | 2.3 nM | 0.000248 s⁻¹ | 108000 M⁻¹ s⁻¹
B2 | 0.25 nM | 5.78e-05 s⁻¹ | 225000 M⁻¹ s⁻¹
B3 | 0.5 nM | 4.99e-05 s⁻¹ | 100000 M⁻¹ s⁻¹
B4 | 0.91 nM | 8.54e-05 s⁻¹ | 94000 M⁻¹ s⁻¹
B5 | 0.63 nM | 6.53e-05 s⁻¹ | 105000 M⁻¹ s⁻¹
B6 | 0.29 nM | 3.92e-05 s⁻¹ | 134000 M⁻¹ s⁻¹
B7 | 0.29 nM | 7.85e-05 s⁻¹ | 267000 M⁻¹ s⁻¹

Biological target: T3, human CEA (CEACAM5), form in the assay …
Assay: SPR

Binder | Kd
B8 | ~2.5 nM
B9 | ~0.8 nM
